From patent US20260184766A1 come the findings set out here.

As usually defined, the EC50 is the concentration giving half of the maximal effect. As a reminder, the EC50 (read off the curve) is the midpoint of the concentration-response curve.

Test [1] concerns the target T1, SARS CoV-2 spike trimer protein from the parental Wuhan-Hu-1 isolate (recombinant stabilized extracellular domain) (SARS-CoV-2 (Wuhan-Hu-1)). Description: ELISA, spike coated, chimeric IgG1. The conditions noted are these: remark: other sources report otherwise. On the technique in general: In an ELISA, binding on a coated surface is turned into a signal by an enzyme label.

In test [2] the target is T1, SARS CoV-2 spike trimer protein from …. Description: ELISA on coated recombinant stabilized spike protein, panel WT, OD 450. The conditions noted are these: remark: other sources report otherwise.
The target is the same in test [3]. The experiment in a line: ELISA on coated spike protein, anti-human Fc-HRP, OD450. The conditions noted are these: remark: other sources report otherwise.
The target in test [4] is SARS-CoV-2 (antigen of the ELISA of FIG. 5E). The experiment in a line: ELISA on SARS-CoV-2 antigen (spike or RBD not stated), OD 450.

B1: SKM chimeric bovine-human IgG1 (ultralong CDR3) (antibody)
VH: QVQLRESGPSLVKPSQTLSLTCTASGFSLSDKAVGWVRQAPGKALEWLGSIDTGGNTGYNPGLKSRLSITKDNSKSQVSLSVSSVTTEDSATYYCTTVHQETLRSCPDGYIDNSGCTADWGCAALDCWRRRFGYHSTDPSHYTGATYIYTYSLHIDAWGQGLLVTVSS
VL: QAVLNQPSSVSGSLGQRVSITCSGSSSNVGNGYVSWYQLIPGSAPRTLIYGDTSRASGVPDRFSGSRSGNTATLTISSLQAEDEADYFCASAEDSSSNAVFGSGTTLTVL
For B1, the EC50 in test [1] is 0.19 nM. In addition, the EC50 (read off the curve) in test [2] amounted to 0.2 nM.

B2: R4C1 chimeric bovine-human IgG1 (ultralong CDR3) (antibody)
VH: QVQLRESGPSLVKPSQTLSLTCTASGFSLSDKAVGWVRQAPGKPLEWLGSIDTAENTGYNPGLKSRLSITKDNSKSQVSLSVSSVTTEDSATYYCATVHQKTRKEKNCPDGYIYSSNTASGYDCGVWICRRVGSAFCSRTGDYTSPSEFDIYEFYVEGWGQGLLVTVSS
VL: B1 VL
B2: the concentration for a half-maximal effect (EC50) in test [1] is 0.2 nM. For the same molecule, the values for the EC50 (read off the curve) in test [2] and in test [3] were 0.3 nM and 0.03 nM, respectively.

B3: R2D9 chimeric bovine-human IgG1 (ultralong CDR3) (antibody)
VH: QVQLRESGPSLVKPSQTLSLTCTASGFSLSDKAIGWVRQAPGKALEWLGSIDTRGNTGYNPGLKSRLSITKDSSKSQVSLSVNSVTTEDSATYLCAIVQQITHKTCPNGYNWFDRCCSWDGTCGDGCCSNRAWPSGNGRADSSIGETYGYEFHVAAWGQGLLVTVSS
VL: B1 VL
B3 registered a concentration for a half-maximal effect (EC50 (read off the curve)) in test [4] of 0.03 nM.

B4: SKD chimeric bovine-human IgG1 (ultralong CDR3) (antibody)
VH: QVQLRESGPSLVKPSQTLSLTCTASGFSLSDKAVGWVRQAPGKALEWLGSIDTGGNTGYNPGLKSRLSITKDNSKSQVSLSVSSVTTEDSATYYCTTVHQRTSEKRSCPGGSSRRYPSGASCDVSGGACACYVSNCRGVLCPTLNEIVAYTYEWHVDAWGQGLLVTVSS
VL: B1 VL
Turning to B4, the concentration for a half-maximal effect (EC50) in test [1] was 0.16 nM.
